IntAct's records for PubMed 24449766

B1: E3 ubiquitin-protein ligase MARCHF6 (Homo sapiens), O60337 (parent)
chain: MDTAEEDICRVCRSEGTPEKPLYHPCVCTGSIKFIHQECLVQWLKHSRKEYCELCKHRFAFTPIYSPDMPSRLPIQDIFAGLVTSIGTAIRYWFHYTLVAFAWLGVVPLTACRIYKCLFTGSVSSLLTLPLDMLSTENLLADCLQGCFVVTCTLCAFISLVWLREQIVHGGAPIWLEHAAPPFNAAGHHQNEAPAGGNGAENVAADQPANPPAENAVVGENPDAQDDQAEEEEEDNEEEDDAGVEDAADANNGAQDDMNWNALEWDRAAEELTWERMLGLDGSLVFLEHVFWVVSLNTLFILVFAFCPYHIGHFSLVGLGFEEHVQASHFEGLITTIVGYILLAITLIICHGLATLVKFHRSRRLLGVCYIVVKVSLLVVVEIGVFPLICGWWLDICSLEMFDATLKDRELSFQSAPGTTMFLHWLVGMVYVFYFASFILLLREVLRPGVLWFLRNLNDPDFNPVQEMIHLPIYRHLRRFILSVIVFGSIVLLMLWLPIRIIKSVLPNFLPYNVMLYSDAPVSELSLELLLLQVVLPALLEQGHTRQWLKGLVRAWTVTAGYLLDLHSYLLGDQEENENSANQQVNNNQHARNNNAIPVVGEGLHAAHQAILQQGGPVGFQPYRRPLNFPLRIFLLIVFMCITLLIASLICLTLPVFAGRWLMSFWTGTAKIHELYTAACGLYVCWLTIRAVTVMVAWMPQGRRVIFQKVKEWSLMIMKTLIVAVLLAGVVPLLLGLLFELVIVAPLRVPLDQTPLFYPWQDWALGVLHAKIIAAITLMGPQWWLKTVIEQVYANGIRNIDLHYIVRKLAAPVISVLLLSLCVPYVIASGVVPLLGVTAEMQNLVHRRIYPFLLMVVVLMAILSFQVRQFKRLYEHIKNDKYLVGQRLVNYERKSGKQGSSPPPPQSSQE

Variants of: B1
Details: with erg1_human SQLE

Variant | effect of a mutation on the interaction
C9A | increasing interaction
